According to US20240226298A1 (JUNO THERAPEUTICS, published 2024):

T1: B-lymphocyte antigen CD19 (CD19) (human, UniProt P15391 20-556)
T1 sequence (looked up): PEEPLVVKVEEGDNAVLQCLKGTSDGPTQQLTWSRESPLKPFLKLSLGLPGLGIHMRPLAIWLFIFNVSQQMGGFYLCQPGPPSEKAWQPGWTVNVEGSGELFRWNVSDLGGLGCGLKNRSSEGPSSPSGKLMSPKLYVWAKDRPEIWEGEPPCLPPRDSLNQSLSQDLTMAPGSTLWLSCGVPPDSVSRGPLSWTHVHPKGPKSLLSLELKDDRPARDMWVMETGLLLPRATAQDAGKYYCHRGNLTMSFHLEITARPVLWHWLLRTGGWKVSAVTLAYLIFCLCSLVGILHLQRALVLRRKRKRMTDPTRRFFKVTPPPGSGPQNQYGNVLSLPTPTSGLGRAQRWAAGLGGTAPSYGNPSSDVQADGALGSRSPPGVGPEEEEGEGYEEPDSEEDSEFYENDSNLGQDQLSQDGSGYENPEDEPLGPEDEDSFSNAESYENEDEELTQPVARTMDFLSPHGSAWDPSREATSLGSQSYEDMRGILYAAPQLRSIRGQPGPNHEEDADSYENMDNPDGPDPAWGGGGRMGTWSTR


Assays:
Test in all cases: cell-based or functional assay
[1] = molecular target: T2, B-cell activating factor receptor (BAFF-R) (human, UniProt Q96RJ3 1-184)
[2] = molecular target: T1, B-lymphocyte antigen CD19 (CD19)
[3] = molecular target: T2, B-cell activating factor receptor …; remark: listed apart in the source

Row | Binder | decrease in IFN-γ production with sBAFF, alone or relative to FMC63 scFv alone (JeKo-1 co-culture) [1] [%] | decrease of IFN-γ with FMC63 scFv + sBAFF compared to the inhibition from FMC63 scFv alone (JeKo-1 co-culture) [1] [%] | decrease in IFN-γ production with FMC63 scFv + sBAFF relative to FMC63 scFv alone (JeKo-1 co-culture) [1] [%] | inhibition of IFN-γ production by CAR T cells when JeKo-1 target cells were preincubated with both FMC63 scFv and sBAFF (20 µg/mL each), relative to target-only co-culture; legend: ++ = High, >80% [2] [%] | inhibition of IFN-γ production by CAR T cells when JeKo-1 target cells were preincubated with both FMC63 scFv and sBAFF (20 µg/mL each), relative to target-only co-culture; legend: ++ = High, >80% [3] [%]
1 | JH3 CAR/LoD (other) EIVMTQSPATLSLSPGERATLSCRASQSVSSNYFSWYQQKPGQAPRLLIYGASTRATGIPARFSGSGSGTDFTLTISSLQPEDFAVYYCQQDYDFPFTFGPGTKVDIKRGGGGSGGGGSDIQMTQTTSSLSASLGDRVTISCRASQDISKYLNWYQQKPDGTVKLLIYHTSRLHSGVPSRFSGSGSGTDYSLTISNLEQEDIATYFCQQGNTLPYTFGGGTKLEITGSTSGSGKPGSGEGSTKGEVKLQESGPGLVAPSQSLSVTCTVSGVSLPDYGVSWIRQPPRKGLEWLGVIWGSETTYYNSALKSRLTIIKDNSKSQVFLKMNSLQTDDTAIYYCAKHYYYGGSYAMDYWGQGTSVTVSSGGGGSGGGGSQVQLQESGPGLVKPSETLSLTCTVSGGSISNYYWSWIRQPPGKGLEWIGYIYYSGSTIYNPSLKSRVTISVDTSKNQFSLKLSSVTAADTAVYYCAGDSSGIDYWGQGTLVTVSSESKYGPPCPPCPMFWVLVVVGGVLACYSLLVTVAFIIFWVKRGRKKLLYIFKQPFMRPVQTTQEEDGCSCRFPEEEEGGCELRVKFSRSADAPAYQQGQNQLYNELNLGRREEYDVLDKRRGRDPEMGGKPRRKNPQEGLYNELQKDKMAEAYSEIGMKGERRRGKGHDGLYQGLSTATKDTYDALHMQALPPR | ≤ 20 | ≤ 10 | – | – | –
2 | JH1 CAR/LoP (other) DIQMTQTTSSLSASLGDRVTISCRASQDISKYLNWYQQKPDGTVKLLIYHTSRLHSGVPSRFSGSGSGTDYSLTISNLEQEDIATYFCQQGNTLPYTFGGGTKLEITGGGGSQVQLVQSGAEVKKPGASVKVSCKASGYTFTSYAMHWVRQAPGQRLEWMGWINAGNGNTKYSQKFQGRVTITRDTSASTAYMELRSLRSDDTAVYYCASGPGRLPVVWGQGTLVTVSSGGGGSGGGGSGGGGSSYVLTQPPSVSVAPGKTARITCGGNNIGSKSVHWYQQKPGQAPVLVVYDDSDRPSGIPERFSGSNSGNTATLTISRVEAGDEADYYCQVWDSSSDHVVFGGGTKLTVLGGGGSEVKLQESGPGLVAPSQSLSVTCTVSGVSLPDYGVSWIRQPPRKGLEWLGVIWGSETTYYNSALKSRLTIIKDNSKSQVFLKMNSLQTDDTAIYYCAKHYYYGGSYAMDYWGQGTSVTVSSESKYGPPCPPCPMFWVLVVVGGVLACYSLLVTVAFIIFWVKRGRKKLLYIFKQPFMRPVQTTQEEDGCSCRFPEEEEGGCELRVKFSRSADAPAYQQGQNQLYNELNLGRREEYDVLDKRRGRDPEMGGKPRRKNPQEGLYNELQKDKMAEAYSEIGMKGERRRGKGHDGLYQGLSTATKDTYDALHMQALPPR | – | – | > 50 | > 80 | > 80
3 | JH2 CAR/LiD/a (other) DIQMTQTTSSLSASLGDRVTISCRASQDISKYLNWYQQKPDGTVKLLIYHTSRLHSGVPSRFSGSGSGTDYSLTISNLEQEDIATYFCQQGNTLPYTFGGGTKLEITGSTSGSGKPGSGEGSTKGEVKLQESGPGLVAPSQSLSVTCTVSGVSLPDYGVSWIRQPPRKGLEWLGVIWGSETTYYNSALKSRLTIIKDNSKSQVFLKMNSLQTDDTAIYYCAKHYYYGGSYAMDYWGQGTSVTVSSGGGGSQVQLQESGPGLVKPSETLSLTCTVSGGSISSYYWSWIRQPPGKGLEWIGYINNSGSTNYNPSLKSRVTISVDTSKNQFSLKLSSVTAADTAVYYCAREDDYWGQGTLVTVSSGGGGSGGGGSGGGGSEIVMTQSPATLSLSPGERATLSCRASQIISSSYLSWYQQKPGQAPRLLIYGASTRATGIPARFSGSGSGTDFTLTISSLQPEDFAVYYCQQDYDFPFTFGPGTKVDIKRESKYGPPCPPCPMFWVLVVVGGVLACYSLLVTVAFIIFWVKRGRKKLLYIFKQPFMRPVQTTQEEDGCSCRFPEEEEGGCELRVKFSRSADAPAYQQGQNQLYNELNLGRREEYDVLDKRRGRDPEMGGKPRRKNPQEGLYNELQKDKMAEAYSEIGMKGERRRGKGHDGLYQGLSTATKDTYDALHMQALPPR | ≤ 20 | ≤ 10 | – | – | –

Continued, values first:

Row | decrease in IFN-γ production with sBAFF, alone or relative to FMC63 scFv alone (JeKo-1 co-culture) [1] [%] | decrease of IFN-γ with FMC63 scFv + sBAFF compared to the inhibition from FMC63 scFv alone (JeKo-1 co-culture) [1] [%] | decrease in IFN-γ production with FMC63 scFv + sBAFF relative to FMC63 scFv alone (JeKo-1 co-culture) [1] [%] | inhibition of IFN-γ production by CAR T cells when JeKo-1 target cells were preincubated with both FMC63 scFv and sBAFF (20 µg/mL each), relative to target-only co-culture; legend: ++ = High, >80% [2] [%] | inhibition of IFN-γ production by CAR T cells when JeKo-1 target cells were preincubated with both FMC63 scFv and sBAFF (20 µg/mL each), relative to target-only co-culture; legend: ++ = High, >80% [3] [%] | Binder
4 | ≤ 20 | ≤ 10 | – | – | – | JH2 CAR/LoD/b (other) QVQLQESGPGLVKPSETLSLTCTVSGGSISSYYWSWIRQPPGKGLEWIGYINNSGSTNYNPSLKSRVTISVDTSKNQFSLKLSSVTAADTAVYYCAREDDYWGQGTLVTVSSGGGGSDIQMTQTTSSLSASLGDRVTISCRASQDISKYLNWYQQKPDGTVKLLIYHTSRLHSGVPSRFSGSGSGTDYSLTISNLEQEDIATYFCQQGNTLPYTFGGGTKLEITGSTSGSGKPGSGEGSTKGEVKLQESGPGLVAPSQSLSVTCTVSGVSLPDYGVSWIRQPPRKGLEWLGVIWGSETTYYNSALKSRLTIIKDNSKSQVFLKMNSLQTDDTAIYYCAKHYYYGGSYAMDYWGQGTSVTVSSGGGGSEIVMTQSPATLSLSPGERATLSCRASQIISSSYLSWYQQKPGQAPRLLIYGASTRATGIPARFSGSGSGTDFTLTISSLQPEDFAVYYCQQDYDFPFTFGPGTKVDIKRESKYGPPCPPCPMFWVLVVVGGVLACYSLLVTVAFIIFWVKRGRKKLLYIFKQPFMRPVQTTQEEDGCSCRFPEEEEGGCELRVKFSRSADAPAYQQGQNQLYNELNLGRREEYDVLDKRRGRDPEMGGKPRRKNPQEGLYNELQKDKMAEAYSEIGMKGERRRGKGHDGLYQGLSTATKDTYDALHMQALPPR
5 | ≤ 20 | ≤ 10 | – | – | – | JH2 CAR/LiD/b (other) DIQMTQTTSSLSASLGDRVTISCRASQDISKYLNWYQQKPDGTVKLLIYHTSRLHSGVPSRFSGSGSGTDYSLTISNLEQEDIATYFCQQGNTLPYTFGGGTKLEITGSTSGSGKPGSGEGSTKGEVKLQESGPGLVAPSQSLSVTCTVSGVSLPDYGVSWIRQPPRKGLEWLGVIWGSETTYYNSALKSRLTIIKDNSKSQVFLKMNSLQTDDTAIYYCAKHYYYGGSYAMDYWGQGTSVTVSSGGGGSEIVMTQSPATLSLSPGERATLSCRASQIISSSYLSWYQQKPGQAPRLLIYGASTRATGIPARFSGSGSGTDFTLTISSLQPEDFAVYYCQQDYDFPFTFGPGTKVDIKRGGGGSGGGGSGGGGSQVQLQESGPGLVKPSETLSLTCTVSGGSISSYYWSWIRQPPGKGLEWIGYINNSGSTNYNPSLKSRVTISVDTSKNQFSLKLSSVTAADTAVYYCAREDDYWGQGTLVTVSSESKYGPPCPPCPMFWVLVVVGGVLACYSLLVTVAFIIFWVKRGRKKLLYIFKQPFMRPVQTTQEEDGCSCRFPEEEEGGCELRVKFSRSADAPAYQQGQNQLYNELNLGRREEYDVLDKRRGRDPEMGGKPRRKNPQEGLYNELQKDKMAEAYSEIGMKGERRRGKGHDGLYQGLSTATKDTYDALHMQALPPR
6 | ≤ 20 | ≤ 10 | – | – | – | JH4 CAR/LiD (other) DIQMTQTTSSLSASLGDRVTISCRASQDISKYLNWYQQKPDGTVKLLIYHTSRLHSGVPSRFSGSGSGTDYSLTISNLEQEDIATYFCQQGNTLPYTFGGGTKLEITGSTSGSGKPGSGEGSTKGEVKLQESGPGLVAPSQSLSVTCTVSGVSLPDYGVSWIRQPPRKGLEWLGVIWGSETTYYNSALKSRLTIIKDNSKSQVFLKMNSLQTDDTAIYYCAKHYYYGGSYAMDYWGQGTSVTVSSGGGGSQVQLQESGPGLVKPSETLSLTCTVSGGSISSYYWSWIRQSPGKGLEWIGYIHYSGNTNYNPSLKSRVTISVDTSKNQFSLKLSSVTAADTAVYYCAREDDYWGQGTLVTVSSGGGGSGGGGSGGGGSEIVMTQSPATLSLSPGERATLSCRASQSVSSNYLSWYQQKPGQAPRLLIYGASTRATGIPARFSGSGSGTDFTLTISSLQPEDFAVYYCQQDFDFPFTFGPGTKVDIKRESKYGPPCPPCPMFWVLVVVGGVLACYSLLVTVAFIIFWVKRGRKKLLYIFKQPFMRPVQTTQEEDGCSCRFPEEEEGGCELRVKFSRSADAPAYQQGQNQLYNELNLGRREEYDVLDKRRGRDPEMGGKPRRKNPQEGLYNELQKDKMAEAYSEIGMKGERRRGKGHDGLYQGLSTATKDTYDALHMQALPPR
7 | – | ≤ 10 | > 50 | > 80 | > 80 | JH2 CAR/LoP (other) DIQMTQTTSSLSASLGDRVTISCRASQDISKYLNWYQQKPDGTVKLLIYHTSRLHSGVPSRFSGSGSGTDYSLTISNLEQEDIATYFCQQGNTLPYTFGGGTKLEITGGGGSQVQLQESGPGLVKPSETLSLTCTVSGGSISSYYWSWIRQPPGKGLEWIGYINNSGSTNYNPSLKSRVTISVDTSKNQFSLKLSSVTAADTAVYYCAREDDYWGQGTLVTVSSGGGGSGGGGSGGGGSEIVMTQSPATLSLSPGERATLSCRASQIISSSYLSWYQQKPGQAPRLLIYGASTRATGIPARFSGSGSGTDFTLTISSLQPEDFAVYYCQQDYDFPFTFGPGTKVDIKRGGGGSEVKLQESGPGLVAPSQSLSVTCTVSGVSLPDYGVSWIRQPPRKGLEWLGVIWGSETTYYNSALKSRLTIIKDNSKSQVFLKMNSLQTDDTAIYYCAKHYYYGGSYAMDYWGQGTSVTVSSESKYGPPCPPCPMFWVLVVVGGVLACYSLLVTVAFIIFWVKRGRKKLLYIFKQPFMRPVQTTQEEDGCSCRFPEEEEGGCELRVKFSRSADAPAYQQGQNQLYNELNLGRREEYDVLDKRRGRDPEMGGKPRRKNPQEGLYNELQKDKMAEAYSEIGMKGERRRGKGHDGLYQGLSTATKDTYDALHMQALPPR
